From patent US20230322879A1

Target: CC-chemokine receptor type 7 (CCR7) (UniProt P32248)
Assay: cell-based or functional assay

Chain of UniProt P32248 (P32248 25-378 limits assumed): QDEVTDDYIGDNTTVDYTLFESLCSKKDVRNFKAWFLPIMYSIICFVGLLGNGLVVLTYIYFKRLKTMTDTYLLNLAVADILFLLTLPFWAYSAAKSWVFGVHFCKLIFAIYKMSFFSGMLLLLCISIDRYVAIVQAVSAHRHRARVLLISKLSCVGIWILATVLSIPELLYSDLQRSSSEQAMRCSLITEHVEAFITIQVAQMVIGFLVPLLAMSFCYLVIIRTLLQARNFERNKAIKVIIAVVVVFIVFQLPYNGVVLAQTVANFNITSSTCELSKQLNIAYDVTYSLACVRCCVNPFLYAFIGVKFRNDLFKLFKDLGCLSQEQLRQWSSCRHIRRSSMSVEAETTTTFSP

## commercial CCL21 antigen (from UniProt O00585 24-134) (ligand)
  Cells in the well of absorbent material (chemotaxis of PBMCs, agarose assay): 170 cells
  Chemotaxis percentage (PBMCs, agarose assay): 90%
  Chemotaxis rate (PBMCs, agarose assay): 153 cells
  cancer cell migration after 72 hours, wound healing assay: 90%
  survival of MCF7 cancer cells, MTT assay, 7.5 µg/ml: 33%
